Measured values: patent publication US20180344812A1 (Scripps Research, published 2018)
Like-named read-outs stand apart in the source and are kept apart here. Bridges are numbered along the chain shown (N, C = ends). Where no end group is shown, it is not given here. [ ]: non-standard residue; d: D form. L1 = C4 bis(bromoacetamide) staple without lipid; L4 = octadecanedioic acid-PEG-ornithine staple; L3 = myristic acid-PEG-PEG-ornithine staple; L5 = C18 diacid-Lys-PEG2-ornithine staple; L2 = myristic acid-PEG-ornithine staple; L6 = made as L5 but on Rink amide resin

T1: human Glucagon-like peptide 2 receptor (GLP-2R) (human, UniProt O95838 1-553)
T1 sequence (looked up): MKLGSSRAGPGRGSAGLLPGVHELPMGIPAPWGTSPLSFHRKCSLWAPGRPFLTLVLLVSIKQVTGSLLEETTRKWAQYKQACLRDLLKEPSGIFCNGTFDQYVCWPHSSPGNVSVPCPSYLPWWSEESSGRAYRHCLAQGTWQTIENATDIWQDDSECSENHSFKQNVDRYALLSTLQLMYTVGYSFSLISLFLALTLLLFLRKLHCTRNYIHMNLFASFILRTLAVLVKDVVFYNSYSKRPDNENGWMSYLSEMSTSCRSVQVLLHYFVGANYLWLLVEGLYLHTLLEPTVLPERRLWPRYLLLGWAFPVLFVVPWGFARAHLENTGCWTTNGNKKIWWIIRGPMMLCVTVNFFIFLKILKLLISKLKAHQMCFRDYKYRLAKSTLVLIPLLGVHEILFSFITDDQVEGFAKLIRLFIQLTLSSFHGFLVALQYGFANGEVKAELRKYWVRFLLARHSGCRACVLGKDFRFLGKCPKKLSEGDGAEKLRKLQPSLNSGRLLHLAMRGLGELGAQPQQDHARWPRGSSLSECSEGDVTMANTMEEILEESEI

T2: human Glucose-dependent insulinotropic polypeptide receptor (GIPR) (human, UniProt P48546 22-466)
T2 sequence (looked up): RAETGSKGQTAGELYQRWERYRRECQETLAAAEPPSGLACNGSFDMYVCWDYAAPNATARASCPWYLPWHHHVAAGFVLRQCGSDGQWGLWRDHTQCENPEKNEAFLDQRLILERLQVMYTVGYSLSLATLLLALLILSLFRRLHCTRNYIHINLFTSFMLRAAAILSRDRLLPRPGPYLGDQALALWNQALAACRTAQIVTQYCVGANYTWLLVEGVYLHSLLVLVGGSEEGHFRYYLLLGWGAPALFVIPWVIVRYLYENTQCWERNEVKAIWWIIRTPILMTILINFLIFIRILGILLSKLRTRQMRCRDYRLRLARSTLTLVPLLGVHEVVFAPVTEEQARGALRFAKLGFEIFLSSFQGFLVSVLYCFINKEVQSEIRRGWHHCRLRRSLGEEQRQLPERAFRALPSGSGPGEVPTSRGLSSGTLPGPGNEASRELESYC


How the values were obtained:
Assay in all cases: cell-based or functional assay
[1] = target: T1, human Glucagon-like peptide 2 receptor …
[2] = target: human glucagon receptor (GCGR) (human, UniProt P47871 26-477)
human glucagon receptor (GCGR), sequence (P47871 26-477): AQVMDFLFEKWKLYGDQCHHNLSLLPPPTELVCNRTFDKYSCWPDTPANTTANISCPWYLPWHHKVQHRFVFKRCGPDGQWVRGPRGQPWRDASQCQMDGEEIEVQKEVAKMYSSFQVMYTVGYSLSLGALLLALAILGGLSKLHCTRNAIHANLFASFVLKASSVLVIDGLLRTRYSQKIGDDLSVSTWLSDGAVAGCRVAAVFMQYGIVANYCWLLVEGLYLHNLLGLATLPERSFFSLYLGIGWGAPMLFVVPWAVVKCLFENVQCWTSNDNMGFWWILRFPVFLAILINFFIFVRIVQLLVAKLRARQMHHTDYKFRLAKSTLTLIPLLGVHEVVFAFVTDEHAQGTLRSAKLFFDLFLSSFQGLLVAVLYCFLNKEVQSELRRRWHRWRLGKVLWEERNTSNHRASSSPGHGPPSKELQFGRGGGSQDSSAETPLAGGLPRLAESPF

[3] = target: T3, human glucagon-like peptide 1 receptor (GLP-1R) (human, UniProt P43220 24-463)
[4] = target: T2, human Glucose-dependent insulinotropic …
[5] = target: T3, human glucagon-like peptide 1 receptor …; remark: listed apart in the source
[6] = target: T2, human Glucose-dependent insulinotropic …; remark: listed apart in the source

Binder	EC50, CRE-luciferase reporter in HEK293-GLP-2R-CRE cells [1]	other results
HGDGSFSDEMNTILDNCAARDFICWLIQTKITD (linker 17-24 via L1) [mTA 46: GLP-2 (A) and L1]	45 pM	
HGDGSFSDEMCTILDNLCARDFINWLIQTKITD (linker 11-18 via L1) [mTA 57: GLP-2 (G) and L1]	46 pM	
HGDGSFSDEMNTILDNCAARDFICWLIQTKITD (linker 17-24 via L2) [mTA 47: GLP-2 (A) and L2]	41 pM	
HGDGSFSDEMNTILDNCAARDFICWLIQTKITD (linker 17-24 via L4) [mTA 49: GLP-2 (A) and L4]	241 pM	
HGDGSFSDCMNTILDCLAARDFINWLIQTKITD (linker 9-16 via L1) [mTA 55: GLP-2 (F) and L1]	64 pM	
HGDGSFSDEMCTILDNLCARDFINWLIQTKITD (linker 11-18 via L5) [mTA 58: GLP-2 (G) and L5]	7980 pM	
HGDGSFSDCMNTILDCLAARDFINWLIQTKITD (linker 9-16 via L5) [mTA 56: GLP-2 (F) and L5]	770 pM	
HGDGSFSDEMNTILDNCAARDFICWLIQTKITD (linker 17-24 via L3) [mTA 48: GLP-2 (A) and L3]	45 pM	
HGDGSFSDEMNTILDCLAARDFICWLIQTKITD (linker 16-24 via L1) [mTA 52: GLP-2 (C) and L1]	5600 pM	
HGDGSFSDEMNTILDNCAARDFICWLIQTKITD (linker 17-24 via L6) [mTA 51: GLP-2 (A) and L6]	700 pM	
HGDGSFSDEMNTILDNCAARDFICWLIQTKITD (linker 17-24 via L5) [mTA 50: GLP-2 (A) and L5]	6400 pM	
HGDGSFSCEMNTILCALAARDFINWLIQTKITD (linker 8-15 via L1) [mTA 53: GLP-2 (D) and L1]	14300 pM	
HGDGSFSDEMNTILDALAARCFINWLICTKITD (linker 21-28 via L1) [mTA 54: GLP-2 (E) and L1]	130 pM	
HGDGSFSDEMNTILDNCAARDFICWLIQTKITDPSSGAPPPS (linker 17-24 via L1) [mTA 59: GLP-2 (H) and L1]	64 pM	
HGDGSFSDCMNTILDCLAARDFINWLIQTKITDPSSGAPPPS (linker 9-16 via L3; also: staple L3 carries myristic acid-PEG-PEG-ornithine lipid) [mTA 65: GLP-2 (I) and L3]	60 pM	
HGDGSFSDCMNTILDCLAARDFINWLIQTKITDPSSGAPPPS (linker 9-16 via L5; also: staple L5 carries C18 diacid-Lys-PEG2-ornithine lipid) [mTA 67: GLP-2 (I) and L5]	3100 pM	
HGDGSFSDEMNTILDNCAARDFICWLIQTKITDPSSGAPPPS (linker 17-24 via L6) [mTA 64: GLP-2 (H) and L6]	700 pM	
HGDGSFSDEMCTILDNLCARDFINWLIQTKITDPSSGAPPPS (linker 11-18 via L3; also: staple L3 carries myristic acid-PEG-PEG-ornithine lipid) [mTA 68: GLP-2 (J) and L3]	28 pM	
HGDGSFSDEMNTILDNCAARDFICWLIQTKITDPSSGAPPPS (linker 17-24 via L3; also: staple L3 carries myristic acid-PEG-PEG-ornithine lipid) [mTA 61: GLP-2 (H) and L3]	68 pM	
HGDGSFSDEMNTILDNCAARDFICWLIQTKITDPSSGAPPPS (linker 17-24 via L5; also: staple L5 carries C18 diacid-Lys-PEG2-ornithine lipid) [mTA 63: GLP-2 (H) and L5]	2660 pM	
HGDGSFSDEMNTILDNCAARDFICWLIQTKITDPSSGAPPPS (linker 17-24 via L2; also: staple L2 carries myristic acid-PEG-ornithine lipid) [mTA 60: GLP-2 (H) and L2]	68 pM	
HGDGSFSDEMCTILDNLCARDFINWLIQTKITDPSSGAPPPS (linker 11-18 via L5; also: staple L5 carries C18 diacid-Lys-PEG2-ornithine lipid) [mTA 70: GLP-2 (J) and L5]	8800 pM	
Y[dA]EGTFISDYSKYLDECAAKEFICWLMNTKRNRNNIA (linker 17-24 via L1) [mTA 44: GLP-1/GIP/Glucagon (A) and L1]		EC50, CRE-luciferase reporter in HEK293-GCGR-CRE cells [2]: 1600 pM; EC50, CRE-luciferase reporter in HEK293-GLP-1R-CRE cells [3]: 9700 pM; EC50, CRE-luciferase reporter in HEK293-GIPR-CRE cells [4]: 40 pM
Y[dA]EGTFTSDYSIYLDKCAAKEFVCWLLAGGPSSGAPPPSK (linker 17-24 via L1) [mTA 40: GLP-1/GIP (A) and L1]		EC50, CRE-luciferase reporter in HEK293-GLP-1R-CRE cells [5]: 20 pM; EC50, CRE-luciferase reporter in HEK293-GIPR-CRE cells [6]: 20 pM
Y[dA]EGTFTSDYSIYLDKCAAKEFVCWLLAGGPSSGAPPPSK (linker 17-24 via L3) [mTA 41: GLP-1/GIP (A) and L3]		EC50, CRE-luciferase reporter in HEK293-GLP-1R-CRE cells [5]: 20 pM; EC50, CRE-luciferase reporter in HEK293-GIPR-CRE cells [6]: 60 pM
Y[dA]EGTFTSDYSIYLDKCAAKEFVCWLLAGGPSSGAPPPSK (linker 17-24 via L5) [mTA 43: GLP-1/GIP (A) and L5]		EC50, CRE-luciferase reporter in HEK293-GLP-1R-CRE cells [5]: 500 pM; EC50, CRE-luciferase reporter in HEK293-GIPR-CRE cells [6]: 1100 pM
